{
  "source": "patent US20180258140A1",
  "about": "“NEW DODECAPEPTIDES AND MICROCAPSULES FUNCTIONALISED WITH THEM TARGETED TO FIBROBLASTS” (Infinitec Activos, S.L., priority 2015, published 2018)",
  "key": {"FGFR2 Kinase": {"target": "FGFR2 Kinase (Homo sapiens, UniProt P21802)", "sequence (P21802 22-821)": "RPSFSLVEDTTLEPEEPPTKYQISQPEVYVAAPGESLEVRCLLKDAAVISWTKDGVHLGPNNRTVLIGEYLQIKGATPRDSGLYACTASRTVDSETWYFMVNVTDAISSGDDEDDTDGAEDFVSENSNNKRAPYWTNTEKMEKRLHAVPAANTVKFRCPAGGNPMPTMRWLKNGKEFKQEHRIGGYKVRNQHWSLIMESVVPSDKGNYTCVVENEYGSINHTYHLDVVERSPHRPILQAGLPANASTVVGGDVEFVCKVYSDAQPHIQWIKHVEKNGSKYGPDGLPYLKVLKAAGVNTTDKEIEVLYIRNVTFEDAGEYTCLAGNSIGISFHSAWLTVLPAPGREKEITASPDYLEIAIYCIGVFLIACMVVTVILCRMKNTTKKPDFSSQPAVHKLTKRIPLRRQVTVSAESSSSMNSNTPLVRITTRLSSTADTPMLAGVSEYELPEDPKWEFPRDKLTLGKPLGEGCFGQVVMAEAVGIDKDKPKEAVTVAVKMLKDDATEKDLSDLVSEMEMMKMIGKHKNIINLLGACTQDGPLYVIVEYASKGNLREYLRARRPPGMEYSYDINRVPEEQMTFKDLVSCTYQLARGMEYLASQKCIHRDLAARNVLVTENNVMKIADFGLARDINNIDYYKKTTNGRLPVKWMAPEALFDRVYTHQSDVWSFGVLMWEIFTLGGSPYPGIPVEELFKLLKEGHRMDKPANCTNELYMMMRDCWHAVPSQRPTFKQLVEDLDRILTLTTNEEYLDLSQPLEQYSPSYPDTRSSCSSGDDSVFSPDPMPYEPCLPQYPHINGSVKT", "assay": "FGFR2 kinase inhibition", "type": "biochemical", "conditions": "percent inhibition of control enzyme activity; test concentration not given", "protocol": "[The source words this procedure for another target and reports this target under the same test.] Evaluation of the effects of the dodecapeptides of the invention on the activity of the human FGFR1 kinase were quantified by measuring the phosphorylation of the substrate Ulight-CAGAGAIETDKEYYTVKD (JAK1) using a human recombinant enzyme expressed in insect cells and the LANCE® detection method using the protocol described below:\nThe peptide to be tested, the reference compound or water (control) are mixed with the enzyme (0.252 ng) in a buffer containing 40 mM Hepes/Tris (pH 7.4), 0.8 mM EGTA/Tris, 8 mM MgCl2, 1.6 mM DTT and 0.008% Tween 20 (For control basal measurements, the enzyme is omitted from the reaction mixture). Thereafter, the reaction is initiated by adding 100 nM of the substrate Ulight-CAGAGAIETDKEYYTVKD (SEQ ID NO: 13) (JAK-1 peptide) and 100 μM ATP, and the mixture is incubated for 60 min at room temperature. Following incubation, the reaction is stopped by adding 13 mM EDTA. After 5 min, the anti-phospho-PT66 antibody labeled with europium chelate (EU-W1024-labeled Anti-Phosphotyrosine Antibody PT66, from Perkin Elmer) is added. After 60 more min, the fluorescence transfer is measured at λex=337 nm, λem=620 nm and λem=665 nm using a microplate reader (Envision, Perkin Elmer).\nThe enzyme activity is determined by dividing the signal measured at 665 nm by that measured at 620 nm (ratio). The results are expressed as a percent inhibition of the control enzyme activity.\nThe standard inhibitory reference compound is staurosporine, which is tested in each experiment at several concentrations to obtain an inhibition curve from which its IC50 value is calculated.\nResults showing an inhibition (or stimulation for assays run in basal conditions) higher than 20% are considered to represent significant effects of the peptides of the invention."}, "FGFR3 Kinase": {"target": "FGFR3 Kinase (UniProt P22607 436-806)", "sequence (P22607 436-806 limits assumed)": "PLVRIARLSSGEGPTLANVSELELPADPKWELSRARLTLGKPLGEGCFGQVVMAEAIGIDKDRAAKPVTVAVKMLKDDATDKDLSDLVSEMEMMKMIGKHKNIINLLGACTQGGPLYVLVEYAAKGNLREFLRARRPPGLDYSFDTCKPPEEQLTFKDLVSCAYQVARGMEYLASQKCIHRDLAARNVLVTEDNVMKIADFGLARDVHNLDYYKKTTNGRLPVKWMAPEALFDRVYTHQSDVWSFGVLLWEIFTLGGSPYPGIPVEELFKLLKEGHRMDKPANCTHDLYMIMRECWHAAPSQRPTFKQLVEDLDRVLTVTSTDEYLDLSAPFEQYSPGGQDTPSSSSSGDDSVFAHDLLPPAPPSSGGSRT", "assay": "cell-based or functional assay"}, "FGFR4 Kinase": {"target": "FGFR4 Kinase (UniProt P22455 460-802, limits assumed)", "sequence (P22455 460-802 limits assumed)": "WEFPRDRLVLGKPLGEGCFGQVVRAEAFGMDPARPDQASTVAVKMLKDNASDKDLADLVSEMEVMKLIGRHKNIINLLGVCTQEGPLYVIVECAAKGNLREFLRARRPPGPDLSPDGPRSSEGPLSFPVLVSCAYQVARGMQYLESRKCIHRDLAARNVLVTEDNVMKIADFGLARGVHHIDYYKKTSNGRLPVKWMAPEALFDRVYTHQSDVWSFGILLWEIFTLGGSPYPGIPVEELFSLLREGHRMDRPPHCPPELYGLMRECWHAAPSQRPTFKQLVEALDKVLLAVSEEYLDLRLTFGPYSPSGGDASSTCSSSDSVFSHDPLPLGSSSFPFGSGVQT", "assay": "cell-based or functional assay"}, "human FGFR1 kinase": {"target": "human FGFR1 kinase (human, UniProt P11362 398-822, limits assumed)", "sequence (P11362 398-822 limits assumed)": "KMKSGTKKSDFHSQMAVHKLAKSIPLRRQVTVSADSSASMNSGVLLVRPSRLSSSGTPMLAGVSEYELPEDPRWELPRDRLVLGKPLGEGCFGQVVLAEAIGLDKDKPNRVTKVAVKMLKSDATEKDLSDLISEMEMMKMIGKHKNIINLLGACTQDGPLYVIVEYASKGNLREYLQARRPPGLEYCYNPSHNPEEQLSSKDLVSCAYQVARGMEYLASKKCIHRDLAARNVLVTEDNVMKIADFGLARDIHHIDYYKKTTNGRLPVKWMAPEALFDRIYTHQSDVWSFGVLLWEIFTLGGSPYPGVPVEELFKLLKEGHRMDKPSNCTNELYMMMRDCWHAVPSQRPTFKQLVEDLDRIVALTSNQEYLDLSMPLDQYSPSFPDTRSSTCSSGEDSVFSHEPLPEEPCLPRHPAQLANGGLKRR", "assay": "cell-based or functional assay"}},
  "note": "*: point of attachment. Palmitoyl = CCCCCCCCCCCCCCCC(=O)*",
  "data": [
    {"molecule": "Palm-Lys-Ala-Asn-Leu-Pro-Leu-Gly-Asn-Tyr-Lys-Lys-Pro-NH2 (Palmitoyl-KANLPLGNYKKP-NH2; SMILES CCCCCCCCCCCCCCCC(=O)N[C@@H](CCCCN)C(=O)N[C@@H](C)C(=O)N[C@@H](CC(N)=O)C(=O)N[C@@H](CC(C)C)C(=O)N1CCC[C@H]1C(=O)N[C@@H](CC(C)C)C(=O)NCC(=O)N[C@@H](CC(N)=O)C(=O)N[C@@H](Cc1ccc(O)cc1)C(=O)N[C@@H](CCCCN)C(=O)N[C@@H](CCCCN)C(=O)N1CCC[C@H]1C(N)=O) [Peptide 2]", "values": [
      {"measurement": "FGFR2 Kinase % Inhibition", "setting": "FGFR2 Kinase", "result": 96.3, "unit": "%"}
    ]},
    {"molecule": "Palm-Lys-Phe-Ala-Leu-Pro-Leu-Gly-Asn-Tyr-Lys-Lys-Pro-NH2 (Palmitoyl-KFALPLGNYKKP-NH2; SMILES CCCCCCCCCCCCCCCC(=O)N[C@@H](CCCCN)C(=O)N[C@@H](Cc1ccccc1)C(=O)N[C@@H](C)C(=O)N[C@@H](CC(C)C)C(=O)N1CCC[C@H]1C(=O)N[C@@H](CC(C)C)C(=O)NCC(=O)N[C@@H](CC(N)=O)C(=O)N[C@@H](Cc1ccc(O)cc1)C(=O)N[C@@H](CCCCN)C(=O)N[C@@H](CCCCN)C(=O)N1CCC[C@H]1C(N)=O) [Peptide 3]", "values": [
      {"measurement": "FGFR2 Kinase % Inhibition", "setting": "FGFR2 Kinase", "result": 98.7, "unit": "%"}
    ]},
    {"molecule": "Palm-Lys-Phe-Asn-Ala-Pro-Leu-Gly-Asn-Tyr-Lys-Lys-Pro-NH2 (Palmitoyl-KFNAPLGNYKKP-NH2; SMILES CCCCCCCCCCCCCCCC(=O)N[C@@H](CCCCN)C(=O)N[C@@H](Cc1ccccc1)C(=O)N[C@@H](CC(N)=O)C(=O)N[C@@H](C)C(=O)N1CCC[C@H]1C(=O)N[C@@H](CC(C)C)C(=O)NCC(=O)N[C@@H](CC(N)=O)C(=O)N[C@@H](Cc1ccc(O)cc1)C(=O)N[C@@H](CCCCN)C(=O)N[C@@H](CCCCN)C(=O)N1CCC[C@H]1C(N)=O) [Peptide 4]", "values": [
      {"measurement": "FGFR2 Kinase % Inhibition", "setting": "FGFR2 Kinase", "result": 87.5, "unit": "%"}
    ]},
    {"molecule": "Palm-Lys-Phe-Asn-Leu-Ala-Leu-Gly-Asn-Tyr-Lys-Lys-Pro-NH2 (Palmitoyl-KFNLALGNYKKP-NH2; SMILES CCCCCCCCCCCCCCCC(=O)N[C@@H](CCCCN)C(=O)N[C@@H](Cc1ccccc1)C(=O)N[C@@H](CC(N)=O)C(=O)N[C@@H](CC(C)C)C(=O)N[C@@H](C)C(=O)N[C@@H](CC(C)C)C(=O)NCC(=O)N[C@@H](CC(N)=O)C(=O)N[C@@H](Cc1ccc(O)cc1)C(=O)N[C@@H](CCCCN)C(=O)N[C@@H](CCCCN)C(=O)N1CCC[C@H]1C(N)=O) [Peptide 5]", "values": [
      {"measurement": "FGFR2 Kinase % Inhibition", "setting": "FGFR2 Kinase", "result": 91.1, "unit": "%"}
    ]},
    {"molecule": "Palm-Lys-Phe-Asn-Leu-Pro-Ala-Gly-Asn-Tyr-Lys-Lys-Pro-NH2 (Palmitoyl-KFNLPAGNYKKP-NH2; SMILES CCCCCCCCCCCCCCCC(=O)N[C@@H](CCCCN)C(=O)N[C@@H](Cc1ccccc1)C(=O)N[C@@H](CC(N)=O)C(=O)N[C@@H](CC(C)C)C(=O)N1CCC[C@H]1C(=O)N[C@@H](C)C(=O)NCC(=O)N[C@@H](CC(N)=O)C(=O)N[C@@H](Cc1ccc(O)cc1)C(=O)N[C@@H](CCCCN)C(=O)N[C@@H](CCCCN)C(=O)N1CCC[C@H]1C(N)=O) [Peptide 6]", "values": [
      {"measurement": "FGFR2 Kinase % Inhibition", "setting": "FGFR2 Kinase", "result": 98.8, "unit": "%"}
    ]},
    {"molecule": "Palm-Lys-Phe-Asn-Leu-Pro-Leu-Ala-Asn-Tyr-Lys-Lys-Pro-NH2 (Palmitoyl-KFNLPLANYKKP-NH2; SMILES CCCCCCCCCCCCCCCC(=O)N[C@@H](CCCCN)C(=O)N[C@@H](Cc1ccccc1)C(=O)N[C@@H](CC(N)=O)C(=O)N[C@@H](CC(C)C)C(=O)N1CCC[C@H]1C(=O)N[C@@H](CC(C)C)C(=O)N[C@@H](C)C(=O)N[C@@H](CC(N)=O)C(=O)N[C@@H](Cc1ccc(O)cc1)C(=O)N[C@@H](CCCCN)C(=O)N[C@@H](CCCCN)C(=O)N1CCC[C@H]1C(N)=O) [Peptide 7]", "values": [
      {"measurement": "FGFR2 Kinase % Inhibition", "setting": "FGFR2 Kinase", "result": 98.4, "unit": "%"}
    ]},
    {"molecule": "Palmitoyl-KANLPLGNYKKP-NH2 (SMILES CCCCCCCCCCCCCCCC(=O)N[C@@H](CCCCN)C(=O)N[C@@H](C)C(=O)N[C@@H](CC(N)=O)C(=O)N[C@@H](CC(C)C)C(=O)N1CCC[C@H]1C(=O)N[C@@H](CC(C)C)C(=O)NCC(=O)N[C@@H](CC(N)=O)C(=O)N[C@@H](Cc1ccc(O)cc1)C(=O)N[C@@H](CCCCN)C(=O)N[C@@H](CCCCN)C(=O)N1CCC[C@H]1C(N)=O)", "note": "[Peptide 2: Palm-Lys-Ala-Asn-Leu-Pro-Leu-Gly-Asn-Tyr-Lys-Lys-Pro-NH2]", "values": [
      {"measurement": "FGFR3 Kinase % Inhibition", "setting": "FGFR3 Kinase", "result": 38.8, "unit": "%"},
      {"measurement": "FGFR4 Kinase % Inhibition", "setting": "FGFR4 Kinase", "result": 96.4, "unit": "%"},
      {"measurement": "FGFR1 Kinase % Inhibition", "setting": "human FGFR1 kinase", "result": 0, "unit": "%"}
    ]}
  ]
}
